± gives the half width of the 95% confidence interval.
Legend:
[1] = folding stability dG unfold from chymotrypsin proteolysis; higher = more stable
How it was run: (§1)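 Bayesian fitting of sequencing counts gave K50 for each design. Unfolding free energy followed by setting this against a sequence-predicted unfolded-state K50 and a shared folded-state K50, either per protease or with trypsin and chymotrypsin combined. The designs, under 80 residues and lacking cysteine, were digested in a PA-tagged cDNA display format at 11 threefold-diluted protease concentrations and without protease, and only those with AlphaFold2 dimer inter-PAE above 15 were kept.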

[2] = folding stability dG unfold (combined trypsin and chymotrypsin); higher = more stable
How it was run: as §1

[3] = folding stability dG unfold from trypsin proteolysis; higher = more stable
How it was run: as §1

Row | Sequence | folding stability dG unfold [1] [kcal/mol] | folding stability dG unfold [2] [kcal/mol] | folding stability dG unfold [3] [kcal/mol]
1 | SAGGSAGGSAGGKVVKFTRPDGKPVDAKKILSYDPDKPKLYVLVEDEGPVELREVDADKDSAGGSAGGSAGG [r7_236_TrMRF] | 0.379 ± 0.32 | 0.161 ± 0.23 | -0.245 ± 0.22
2 | SAGGMKVKVEVEITVNGKLVKKLTVEMSVEELKKLIEELLPPGAKVEVKIVEVKVEEVEVYELPEEEKSAGG [r13_491_TrROS_Hall] | 2.21 ± 0.18 | 2.18 ± 0.32 | 1.81 ± 0.13
3 | SAGGVKEIEIPNGMRITDVDPPDGYWKIKIENPDNGKEVERPIPPGDKLKIPPNAPVTITEIEPYPPSAGGS [r16_123_TrROS] | -0.103 ± 0.48 | < -1 | -0.613 ± 0.27
4 | SAGGSAGGSAGGMTLEELKKAIENAKPGETIEIEINGETYRITIIEKDGKLIIKIEKLPPSAGGSAGGSAGG [r7_448_TrROS_Hall] | 4.21 ± 0.25 | 4.19 ± 0.24 | 4.36 ± 0.36
5 | SAGGMEFEFTREDGRKTRVELEVNPETGEVTEKIYVGGKLLYTFKDGELKYIPDEVAAARIEARLPPESAGG [r13_958_TrMRF] | 1.84 ± 0.079 | 1.45 ± 0.11 | -0.0213 ± 0.12
6 | SAGGSARRPFNVEAWYPPGRSADNVADELASHFFGIKIDDVEVEPNPDNGYYKIEATIRIPPDWLKSAGGSA [r15_930_TrROS] | 0.528 ± 0.29 | 0.33 ± 0.18 | 0.0136 ± 0.36
7 | SAGMKYTFKILVKADSPEEAIETAKKLVEKWLKENFPELPEGVKIKEIKVEPLPDDYYLVTITVEFDPESAG [r5_320_TrMRF] | 5.51 ± 0.091 | 5.49 ± 0.1 | 4.2 ± 0.19
8 | SAGGEIPPNAKIDELEISPGSGYIRIKVEFYDPDGKPIWKMTITIPIKPVPRPSPEDQKEQNKKNKKSAGGS [r16_697_TrROS] | 2.68 ± 0.12 | 2.39 ± 0.67 | 1.36 ± 0.18
9 | SAGGSAGGVISEEEIEAKAEEAKAEAIAAGLESKEVTITSPSGKVYKITVDVNSITIEKSPAAGSAGGSAGG [r6_270_JUSTAS] | 0.743 ± 0.088 | 0.832 ± 0.16 | 0.879 ± 0.088
10 | SAWVIPFEVRLPGSPEQARRQVEEWADNIANRYQQNGFRVVDIKIDEIEPDNVRVRLTIQIVPPGQEIPSAG [r14_973_TrROS] | 2.52 ± 0.054 | 2.66 ± 0.14 | 2.74 ± 0.08
11 | SAGGSAGGSAGVKVLKNPGDSLVTVVTETTVTKTTTDPEGNTTTTPVKVTTTTLLEVPLTSAGGSAGGSAGG [r17_103_JUSTAS] | 0.215 ± 0.056 | 0.279 ± 0.071 | 0.205 ± 0.033
12 | SAGGWHTIQINVRRPGKPITPEKIKEALREAYPGYPIEVEDINPEDGRITITVPENAMPRIKEALMKSAGGS [r8_235_TrROS] | 0.896 ± 0.076 | 1.01 ± 0.11 | 1.06 ± 0.041
13 | SAGAAPGEPVVLVLPDGTVIPVIPRPDGSATLDAVAPSADGTYTVTASLPATGTTVTLELSAPPSFVAASAG [r5_394_TrMRF] | 0.824 ± 0.052 | 1.16 ± 0.043 | 1.43 ± 0.038
14 | SAGGSAGGSAPDVEVEPFTLPSGEEAVAFRLPDGSRVVLVGDKAVLFYKDGKVEEVPLEEILSAGGSAGGSA [r18_379_TrMRF] | 1.78 ± 0.1 | 1.76 ± 0.13 | 1.46 ± 0.042
15 | SAGGEIAKRFAKYARDAGYDVRVDVEIIPPDEFPGLKPGKPYVIKVEIEVTPPNGPRRPLGEFTIMINSAGG [r13_874_TrROS] | 3.18 ± 0.046 | 2.82 ± 0.08 | 2.13 ± 0.06
16 | SAGPPPWMVIRIPFWVKVTPDDGIITIEFKIEIGNKEFKIKITIPIPPELADAPPGETIPIPIWIFIRPSAG [r5_714_TrROS] | 5.13 ± 0.062 | 4.81 ± 0.13 | 3.99 ± 0.16
17 | SAGGSAGGSAGIEIHVMEDPDGRWWLMITIKVKYKVRNPEDGDPIFEFEVTYTIMIWLKASAGGSAGGSAGG [r17_124_TrROS] | 5.9 ± 0.17 | > 6 | 4.3 ± 0.24
